This is an account of results in patent US20180238915A1 (published 2018).

Test [1] has as its target T1, negatively modulated GCSF receptor (GCSFR(-)) (UniProt Q99062 25-621, limits assumed, modified by S-HyNic and conjugated through HyNic-4FB bonds to a 64-base DNA oligonucleotide (SEQ. ID 2, 5' C12 amino modifier); number and sites not stated).
T1 construct: Receptor-oligonucleotide conjugate; Receptor known only by catalogue number; also called nGCSFR; nTPR
T1 sequence (looked up): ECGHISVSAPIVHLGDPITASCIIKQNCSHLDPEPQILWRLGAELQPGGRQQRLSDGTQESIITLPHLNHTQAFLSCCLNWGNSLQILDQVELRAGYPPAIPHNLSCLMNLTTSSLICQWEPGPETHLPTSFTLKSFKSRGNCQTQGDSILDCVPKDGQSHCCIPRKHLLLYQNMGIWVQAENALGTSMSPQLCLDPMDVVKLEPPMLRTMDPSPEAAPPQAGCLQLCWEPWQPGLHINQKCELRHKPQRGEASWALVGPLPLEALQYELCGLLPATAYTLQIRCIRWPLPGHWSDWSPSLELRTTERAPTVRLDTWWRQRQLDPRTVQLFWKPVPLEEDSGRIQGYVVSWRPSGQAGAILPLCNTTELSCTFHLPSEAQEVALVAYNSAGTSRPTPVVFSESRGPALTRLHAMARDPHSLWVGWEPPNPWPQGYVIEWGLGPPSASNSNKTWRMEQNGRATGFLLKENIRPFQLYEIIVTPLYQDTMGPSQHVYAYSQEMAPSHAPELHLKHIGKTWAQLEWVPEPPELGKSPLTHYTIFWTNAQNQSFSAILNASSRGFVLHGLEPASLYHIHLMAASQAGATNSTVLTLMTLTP
The experiment in a line: off-rate by negative MCM and electrokinetic concentration; 100 nM labeled drug, 1 uM negatively modulated receptor. The method, then: The dissociation rate of drug-receptor binding, koff was measured by monitoring the evolution of the peak of complex and fitting it with the aforementioned derived equation.

Test [2] deals with T2, positively modulated granulocyte colony stimulating factor receptor (pGCSFR) (UniProt Q99062 25-621, limits assumed, C-terminal Lys carries 5-FAM; C-terminal amide (CONH2); N-terminus modified by 6-(BOC-hydrazino)nicotinic acid for conjugation to the receptor; modified by Sulfo-S-4FB and conjugated through a …).
T2 construct: Receptor-peptide conjugate; Receptor known only by catalogue number
T2 sequence: T1 sequence (looked up)
T2 sequence (peptide): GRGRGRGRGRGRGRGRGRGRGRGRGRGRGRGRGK
The experiment in a line: direct assay by positive MCM and electrokinetic concentration; 1 nM pGCSFR, 0-81 nM G-CSF, 30 min incubation, 30 V 15 min. An excerpt:
The dose-response curves were plotted by fitting the experimental results with the classic second-order binding model.

B1: labeled G-CSF (Alexa Fluor 488) (ligand, UniProt P09919-2 31-204, looked up)
chain: TPLGPASSLPQSFLLKCLEQVRKIQGDGAALQEKLCATYKLCHPEELVLLGHSLGIPWAPLSSCPSQALQLAGCLSQLHSGLFLYQGLLQALEGISPELGPTLDTLQLDVADFATTIWQQMEELGMAPALQPTQGAMPAFASAFQRRAGGVLVASHLQSFLEVSYRVLRHLAQP
modifications: Alexa Fluor 488 label (carboxylic acid succinimidyl ester); sites not stated
In test [1], B1 came in with a dissociative half-life of 5.5 h.

B2: granulocyte colony stimulating factor (G-CSF) (ligand, UniProt P09919-2 31-204, looked up)
chain: B1 chain
notes: Unlabeled Sandoz G-CSF
B2 displayed a dissociation constant Kd in test [2] of approximately 0.7 nM.

One may read the Kd as the free concentration of one partner at which half of the binding sites on the other are occupied at equilibrium, for simple one-to-one binding.
